Data taken from patent US20220372155A1 (LYVGEN BIOPHARMA, published 2022).

Experiments:
[1] = target: T1, human CD40 expressed on CHO cells (human, UniProt P25942 21-277); test: FACS, CHO cells
T1 construct: whole, on cells; also used for the reporter cells over-expressing human CD40; also called cellular CD40; CHO-CD40 cells

[2] = target: T2, Human CD40 ECD protein (mouse IgG2a Fc tag) (human, UniProt P25942 21-193); test: bridging ELISA, coated B7H3-His, soluble CD40-msFc
T2 construct: extracellular domain; also called Human CD40-msFc; human recombinant CD40; not shown: mouse IgG2a Fc tag
Experimental: Anti-B7H3/CD40 bi-specific antibodies were analyzed by ELISA for their simultaneous binding to recombinant human B7H3 and human CD40. Briefly, Human B7H3 CD protein (His-tag) was diluted and coated onto an ELISA plate with a volume of […] by incubation at 4° C. overnight. The next day, the plate was blocked with PBST-BSA buffer, then serially diluted samples of anti-B7H3/CD40 bi-specific antibodies were pipetted into appropriate wells at 50 μL/well, and the plate was incubated for 1 h followed by washing. Human CD40-msFc antibody was added into the plate at 50 μL/well. After 1-hour incubation at room temperature, […] anti-Mouse IgG (H+L) antibody was added into the plate at 100 μL/well. The plate was incubated for 1 hour at room temperature followed by washing. TMB substrate solution was added at 100 p L/well and the color development was stopped by adding 100 uUwell Stop Solution (2N H2SO4). Absorbance at 450 nm and 620 nm was read by Tecan F200 Pro plate reader. GraphPad 7.0, “[Agonist] vs. response—Variable slope (four parameters)” was used to plot the binding data and calculate binding EC50 values.

T1 sequence (P25942 21-277): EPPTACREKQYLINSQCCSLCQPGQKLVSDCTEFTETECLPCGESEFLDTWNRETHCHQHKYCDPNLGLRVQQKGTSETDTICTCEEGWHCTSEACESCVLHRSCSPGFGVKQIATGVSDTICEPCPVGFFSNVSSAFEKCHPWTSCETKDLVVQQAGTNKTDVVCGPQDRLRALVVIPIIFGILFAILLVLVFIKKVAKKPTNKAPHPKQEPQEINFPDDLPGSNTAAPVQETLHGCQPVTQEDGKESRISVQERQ
T2 sequence (P25942 21-193): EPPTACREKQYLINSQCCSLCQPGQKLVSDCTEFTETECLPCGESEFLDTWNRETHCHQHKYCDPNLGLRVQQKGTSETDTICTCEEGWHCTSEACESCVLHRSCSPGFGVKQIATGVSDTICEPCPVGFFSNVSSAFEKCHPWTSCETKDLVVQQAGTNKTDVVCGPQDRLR

Binder | binding result [1] | binding result [2]
Ly614 (bispecific antibody, human IgG1, kappa, Ly387 HC (IgG1 mutated Fc)-TM740 scFv VL-VH + Ly387 LC) heavy: QVQLQQPGAELVKPGASVKLSCKASGYTFTSYWMHWVKQRPGQGLEWIGMIHPNSGGTNYNEKFKGKGTLTVDKSSSTAYMQLSSLTSDDSAVYYCVTSQATWFAYWGQGTLVTVSAASTKGPSVFPLAPSSKSTSGGTAALGCLVKDYFPEPVTVSWNSGALTSGVHTFPAVLQSSGLYSLSSVVTVPSSSLGTQTYICNVNHKPSNTKVDKKVEPKSCDKTHTCPPCPAPELLGPSVFLFPPKPKDTLMISRTPEVTCVVVDVSHEDPEVKFNWYVDGVEVHNAKTKPREEQYNSTYRVVSVLTVLHQDWLNGKEYKCKVSNKALPAPIEKTISKAKGQPREPQVYTLPPSREEMTKNQVSLTCLVKGFYPSDIAVEWESNGQPENNYKTTPPVLDSDGSFFLYSKLTVDKSRWQQGNVFSCSVMHEALHNHYTQKSLSLSPGGGGGSGGGGSGGGGSGGGGSDIQMTQSPSSLSASVGDRVTITCKASQNIYIYLNWYQQKPGKAPKLLIYNTNNLQTGVPSRFSGSGSGTDFTLTISSLQPEDFATYYCLQHSSRRTFGGGTKVEIKGGGGSGGGGSGGGGSGGGGSQVQLVESGGGLVQPGGSLKLSCATSGFNFNDYFMNWVRQASGKGLEWVGQIRNKNYNYATYYTESLEGRVTISRDDSKNTAYLQMNSLKTEDTAVYYCTSYYYDGFADYFDYWGQGTTVTVSS light: ENVLTQSPAIMSVSPGEKVTMTCRASSSVSSSYLHWYQQKSGASPKFWIYSTSNLASGVPARFSGSGSGTSYSLTISSVEAEDAATYYCQHYSGYPLTFGAGTKLELRRTVAAPSVFIFPPSDEQLKSGTASVVCLLNNFYPREAKVQWKVDNALQSGNSQESVTEQDSKDSTYSLSSTLTLSKADYEKHKVYACEVTHQGLSSPVTKSFNRGEC | binds | binds
Ly610 (bispecific antibody, human IgG1, kappa, Ly383 HC (IgG1 mutated Fc)-TM740 scFv VL-VH + Ly383 LC) heavy: EVQLQQSGPELVKPGASVKMSCKASGYTFTSYVMHWVKQKPGQGLEWIGYINPYNDGTECTDKFKGKATLTSDKSSSTAYMELSSLTSEDSAVYYCASIYYGYDGTYFGVWGAGTSVTVSSASTKGPSVFPLAPSSKSTSGGTAALGCLVKDYFPEPVTVSWNSGALTSGVHTFPAVLQSSGLYSLSSVVTVPSSSLGTQTYICNVNHKPSNTKVDKKVEPKSCDKTHTCPPCPAPELLGPSVFLFPPKPKDTLMISRTPEVTCVVVDVSHEDPEVKFNWYVDGVEVHNAKTKPREEQYNSTYRVVSVLTVLHQDWLNGKEYKCKVSNKALPAPIEKTISKAKGQPREPQVYTLPPSREEMTKNQVSLTCLVKGFYPSDIAVEWESNGQPENNYKTTPPVLDSDGSFFLYSKLTVDKSRWQQGNVFSCSVMHEALHNHYTQKSLSLSPGGGGGSGGGGSGGGGSGGGGSDIQMTQSPSSLSASVGDRVTITCKASQNIYIYLNWYQQKPGKAPKLLIYNTNNLQTGVPSRFSGSGSGTDFTLTISSLQPEDFATYYCLQHSSRRTFGGGTKVEIKGGGGSGGGGSGGGGSGGGGSQVQLVESGGGLVQPGGSLKLSCATSGFNFNDYFMNWVRQASGKGLEWVGQIRNKNYNYATYYTESLEGRVTISRDDSKNTAYLQMNSLKTEDTAVYYCTSYYYDGFADYFDYWGQGTTVTVSS light: QIVLSQSPAILSTSPGEKVTMTCRASSSVSYMHWYQQKPGSSPKPWIYATSNLASGVPARFSGSRSGTSYSLTISRVEAEDAATYYCQQWSSNTLTFGGGTKLELKRTVAAPSVFIFPPSDEQLKSGTASVVCLLNNFYPREAKVQWKVDNALQSGNSQESVTEQDSKDSTYSLSSTLTLSKADYEKHKVYACEVTHQGLSSPVTKSFNRGEC | binds | binds
Ly612 (bispecific antibody, human IgG1, kappa, Ly383 HC (IgG1 mutated Fc)-TM559 scFv VL-VH + Ly383 LC) heavy: EVQLQQSGPELVKPGASVKMSCKASGYTFTSYVMHWVKQKPGQGLEWIGYINPYNDGTECTDKFKGKATLTSDKSSSTAYMELSSLTSEDSAVYYCASIYYGYDGTYFGVWGAGTSVTVSSASTKGPSVFPLAPSSKSTSGGTAALGCLVKDYFPEPVTVSWNSGALTSGVHTFPAVLQSSGLYSLSSVVTVPSSSLGTQTYICNVNHKPSNTKVDKKVEPKSCDKTHTCPPCPAPELLGPSVFLFPPKPKDTLMISRTPEVTCVVVDVSHEDPEVKFNWYVDGVEVHNAKTKPREEQYNSTYRVVSVLTVLHQDWLNGKEYKCKVSNKALPAPIEKTISKAKGQPREPQVYTLPPSREEMTKNQVSLTCLVKGFYPSDIAVEWESNGQPENNYKTTPPVLDSDGSFFLYSKLTVDKSRWQQGNVFSCSVMHEALHNHYTQKSLSLSPGGGGGSGGGGSGGGGSGGGGSDIQMTQSPSSLSASVGDRVTITCLASEDISNDLAWYQQKPGKAPKLLIYFVDRLLDGVPSRFSGSGSGTDFTLTISSLQPEDFATYYCQQSYKYPPTFGQGTKLEIKGGGGSGGGGSGGGGSGGGGSEVQLVESGGGLVQPGGSLRLSCAASGFTFTNYGLHWVRQAPGKGLEWVSSISPSGGVTYYRDSVKGRFTISRDNSKNTLYLQMNSLRAEDTAVYYCAKPFLGWGGANWIAHWGQGTLVTVSS light: QIVLSQSPAILSTSPGEKVTMTCRASSSVSYMHWYQQKPGSSPKPWIYATSNLASGVPARFSGSRSGTSYSLTISRVEAEDAATYYCQQWSSNTLTFGGGTKLELKRTVAAPSVFIFPPSDEQLKSGTASVVCLLNNFYPREAKVQWKVDNALQSGNSQESVTEQDSKDSTYSLSSTLTLSKADYEKHKVYACEVTHQGLSSPVTKSFNRGEC | binds | binds

The remaining lines, values ahead:

binding result [1] | binding result [2] | Binder
binds | binds | Ly613 (bispecific antibody, human IgG1, kappa, Ly383 HC (IgG1 mutated Fc)-TM559 scFv VH-VL + Ly383 LC) heavy: EVQLQQSGPELVKPGASVKMSCKASGYTFTSYVMHWVKQKPGQGLEWIGYINPYNDGTECTDKFKGKATLTSDKSSSTAYMELSSLTSEDSAVYYCASIYYGYDGTYFGVWGAGTSVTVSSASTKGPSVFPLAPSSKSTSGGTAALGCLVKDYFPEPVTVSWNSGALTSGVHTFPAVLQSSGLYSLSSVVTVPSSSLGTQTYICNVNHKPSNTKVDKKVEPKSCDKTHTCPPCPAPELLGPSVFLFPPKPKDTLMISRTPEVTCVVVDVSHEDPEVKFNWYVDGVEVHNAKTKPREEQYNSTYRVVSVLTVLHQDWLNGKEYKCKVSNKALPAPIEKTISKAKGQPREPQVYTLPPSREEMTKNQVSLTCLVKGFYPSDIAVEWESNGQPENNYKTTPPVLDSDGSFFLYSKLTVDKSRWQQGNVFSCSVMHEALHNHYTQKSLSLSPGGGGGSGGGGSGGGGSGGGGSEVQLVESGGGLVQPGGSLRLSCAASGFTFTNYGLHWVRQAPGKGLEWVSSISPSGGVTYYRDSVKGRFTISRDNSKNTLYLQMNSLRAEDTAVYYCAKPFLGWGGANWIAHWGQGTLVTVSSGGGGSGGGGSGGGGSGGGGSDIQMTQSPSSLSASVGDRVTITCLASEDISNDLAWYQQKPGKAPKLLIYFVDRLLDGVPSRFSGSGSGTDFTLTISSLQPEDFATYYCQQSYKYPPTFGQGTKLEIK light: QIVLSQSPAILSTSPGEKVTMTCRASSSVSYMHWYQQKPGSSPKPWIYATSNLASGVPARFSGSRSGTSYSLTISRVEAEDAATYYCQQWSSNTLTFGGGTKLELKRTVAAPSVFIFPPSDEQLKSGTASVVCLLNNFYPREAKVQWKVDNALQSGNSQESVTEQDSKDSTYSLSSTLTLSKADYEKHKVYACEVTHQGLSSPVTKSFNRGEC
binds | binds | Ly611 (bispecific antibody, human IgG1, kappa, Ly383 HC (IgG1 mutated Fc)-TM740 scFv VH-VL + Ly383 LC) heavy: EVQLQQSGPELVKPGASVKMSCKASGYTFTSYVMHWVKQKPGQGLEWIGYINPYNDGTECTDKFKGKATLTSDKSSSTAYMELSSLTSEDSAVYYCASIYYGYDGTYFGVWGAGTSVTVSSASTKGPSVFPLAPSSKSTSGGTAALGCLVKDYFPEPVTVSWNSGALTSGVHTFPAVLQSSGLYSLSSVVTVPSSSLGTQTYICNVNHKPSNTKVDKKVEPKSCDKTHTCPPCPAPELLGPSVFLFPPKPKDTLMISRTPEVTCVVVDVSHEDPEVKFNWYVDGVEVHNAKTKPREEQYNSTYRVVSVLTVLHQDWLNGKEYKCKVSNKALPAPIEKTISKAKGQPREPQVYTLPPSREEMTKNQVSLTCLVKGFYPSDIAVEWESNGQPENNYKTTPPVLDSDGSFFLYSKLTVDKSRWQQGNVFSCSVMHEALHNHYTQKSLSLSPGGGGGSGGGGSGGGGSGGGGSQVQLVESGGGLVQPGGSLKLSCATSGFNFNDYFMNWVRQASGKGLEWVGQIRNKNYNYATYYTESLEGRVTISRDDSKNTAYLQMNSLKTEDTAVYYCTSYYYDGFADYFDYWGQGTTVTVSSGGGGSGGGGSGGGGSGGGGSDIQMTQSPSSLSASVGDRVTITCKASQNIYIYLNWYQQKPGKAPKLLIYNTNNLQTGVPSRFSGSGSGTDFTLTISSLQPEDFATYYCLQHSSRRTFGGGTKVEIK light: QIVLSQSPAILSTSPGEKVTMTCRASSSVSYMHWYQQKPGSSPKPWIYATSNLASGVPARFSGSRSGTSYSLTISRVEAEDAATYYCQQWSSNTLTFGGGTKLELKRTVAAPSVFIFPPSDEQLKSGTASVVCLLNNFYPREAKVQWKVDNALQSGNSQESVTEQDSKDSTYSLSSTLTLSKADYEKHKVYACEVTHQGLSSPVTKSFNRGEC
